What was measured:
Test in all cases: cell-based or functional assay
[1] = target: mitochondrial ATP synthase (ETC Complex V) ATPase in rat liver submitochondrial particles (SMP) (rat, UniProt P15999 44-553; P10719 47-529; P35435 1-273; P35434 23-168; P29418 2-51)
[2] = target: purified F1-ATPase subcomplex isolated from bovine cardiac samples (bovine, UniProt P19483 44-553; P00829 47-528; P05631 26-297; P05630 23-168; P05632 2-51)
[3] = target: purified F0-F1 ATPase complex isolated from bovine cardiac samples (bovine, UniProt P19483 44-553; P00829 47-528; P05631 26-297; P05630 23-168; P05632 2-51)
[4] = target: F0-F1-ATPase in rat ASMPs (alkaline submitochondrial particles) prepared from rat cardiac samples (rat, UniProt P15999 44-553; P10719 47-529; P35435 1-272; P35434 23-168; P29418 2-51)

Row | Binder | IC50, inhibition of oligomycin-sensitive ATPase in rat liver SMP [1] | IC50, inhibition of ATP hydrolysis by purified F1-ATPase [2] | IC50, inhibition of ATP hydrolysis by purified F0-F1-ATPase [3] | IC50, inhibition of F0-F1-ATPase in rat ASMPs [4]
1 | SIREAGGAFGKREKAEEDRYFREKTREQLA [IF1 peptide 14-43 (synthetic peptide fragment of rat IF1)] | > 1.5 µM | – | – | –
2 | FGKREKAEEDRYFREKTREQLAALK [IF1(22-46) synthetic polypeptide, amino acids 22-46 of the mature form of rat IF1] | – | ~1.39 µM | – | –

Other lines, results leading:

Row | IC50, inhibition of oligomycin-sensitive ATPase in rat liver SMP [1] | IC50, inhibition of ATP hydrolysis by purified F1-ATPase [2] | IC50, inhibition of ATP hydrolysis by purified F0-F1-ATPase [3] | IC50, inhibition of F0-F1-ATPase in rat ASMPs [4] | Binder
3 | – | ~0.87 µM | ~0.18 µM | ~2.5 µM | LAALKKHHEDEIDHHSK [IF1(42-58) synthetic polypeptide, amino acids 42-58 of the mature form of rat IF1]
4 | > 2.6 µM | – | – | – | SIREAGGAFGKREKAEEDRYFREKTREQL [IF1 peptide 14-42 (synthetic peptide fragment of rat IF1)]

— US20030026781A1 (MITOKOR, published 2003)
